From the nanobody polyreactivity screen of Harvey et al. (2022)

Test: yeast display, Sf9 membrane polyspecificity reagent, FACS + sequencing; frameworks hold sequencing errors
In short: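 After 36–48 hours of galactose induction, yeast (Saccharomyces cerevisiae BJ5465) displaying a synthetic nanobody library were stained at 4 °C for 1 hour with 10% biotinylated, detergent-solubilized Sf9 membrane reagent. Streptavidin microbeads enriched the stained cells before FACS sorting into low and high (top ~1%) gates on anti-HA and streptavidin fluorescence. Each clone's polyreactivity label reflects its gate of origin.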

Sequence: QVQLVESGGGLVQAGGSLRLSCAASGSTFYPNAMGWYRQAPGKERELVAAIRTRGGSTYYADSVKGRFTISRDNAKNTVYLQMNSLKPEDTAVYYCAAEKRYRKAFDYWGQGTQVTVSS
- polyreactivity (PSR sort gate): low polyreactivity

Sequence: QVQLVESGGGLVQAGGSLRLSCAASGSIVDYNAMGWYRQPPGKERELVAAISSGGSTYYADSVKGRFTISRDNAKNTVYLQMNSLKPEDTAVYYCAVKFWLVIQFDYWGQGTQVTVSS
- polyreactivity (PSR sort gate): low polyreactivity

Sequence: QVQIVESGGGLVQAGGSLRLSCGASGLSFYYYAMGWYRQAPGKERELVASISTGGNTYYADSVKGRFTISRVNAKNTVYLQMNSLNPEDTAVYYCAAGLYSWSGYASYNSAYGYWGQGTQVTVSS
- polyreactivity (PSR sort gate): low polyreactivity

Sequence: QVQLVESGGGLVQAGGSLRLSCAASGRTFYSNVMGWYRQAPGKERELVAAISKSGGRTYYADSVKGRFTISRDNAKNTVYLQMNSLKPEDTAVYYCATDHGRYHGRYDYWGQGTQVTVSS
- polyreactivity (PSR sort gate): high polyreactivity

Sequence: QVQLVESGGGLVQAGGSLRLSCAASGLIFLSYGMGWYRQAPGKERELVAAISSGGSTYYADSVKGRFTISRDNAKNTVYLQMNSLKPEDTAVYYCAAEQPIEFDHWGQGTQVTVSS
- polyreactivity (PSR sort gate): low polyreactivity

Sequence: QVQLVESGGGLVQAGGSLRLSCAASGRTFYVYDMGWYREAPGKVRELVAFISSSGSTNYADSVKGRFTISRDNAKYTVYLQMNSLKPEDTAGYYCNKRLIYYRGTYYSRRFDYWGQGTQVTVSS
- polyreactivity (PSR sort gate): high polyreactivity

Sequence: QVQLVESGGGLVQAGGSLRLSCAATGRIFGSNAMGWYRQAPGKEREVVAAITRGGSTNYADSVKGRFTISRDNAKNTVYLQMNSLKPEDTAVYYCAVRWYRKYNFWGQGTQVTVSS
- polyreactivity (PSR sort gate): high polyreactivity

Sequence: QVQLVESGGGLVQAGGSLRLSCAASGLIFGAYTMGWYRQAPGKERELVASITTSGDSTYYADSVKGRFTISRDNAKNTVYLQMNSLKPEDTAVYYCAAESTVGTDLGGDSWGQGTQVTVSS
- polyreactivity (PSR sort gate): high polyreactivity

Sequence: QVQLVESGGGLVQAGGSLRLSCAASGSTFFRYAMGWYRPAPGKEREFVAAISKRGGSTHYADSVKGRFTISRDNAKNTVYLQMNSLKPEDTAVYYCAASSFTSSYNFWGQGTQVTVSS
- polyreactivity (PSR sort gate): high polyreactivity

Sequence: QVQLVESGGGLVQAGGSLRLSCAASGSTFTFYFMGWYRQAPGKERELVAAITASGGSTYYADSVKGRFTISRDNAKNTVYLQMNSEKPEDTAVYYCAARPTYYYSRTYDYWGQGTQVTVSS
- polyreactivity (PSR sort gate): low polyreactivity

Sequence: QVHLVESGGGLVQAGGSLRLSCAASGRIFFYYAMGWYRQAPGKERELVAAISSTGGSTNYADSVKGRFTISRDNAKNTVYLQMNSLKPEDTAVYYCNKDLYYAYDYWGQGTQVTVSS
- polyreactivity (PSR sort gate): low polyreactivity

Sequence: QVQIVESGGGLVQPGGSLRLSCAASGITFYKYAMGWYRPAPGKERELLAAISKSGGRTYYADSVKGRFTISRDNAKNTVYLQMNSLKPEDTAVYYCNAQPNYAYHGEDDYWGQGNQVTVSS
- polyreactivity (PSR sort gate): high polyreactivity

Sequence: QVQRVESGGGLVQAGGSLRLSCAASGSIYRWNARGWSRQATGKERELVAVINSSGGSTYYADSVKGRFTISRDNAKNTVYLQMNSLKPEDTAVYYCAADLFLECSSQYAPNWWPDGWNTYRLLGGYWGQGTQVTVSS
- polyreactivity (PSR sort gate): low polyreactivity

Sequence: QVQLVESGGGLVQAGGSLRLSCAASGIIFGTYAMGWYRQAPGKERDLVAAISSSGGSTYYADSVKGRFTISRDNAKNTVYLQMNSLKPEDTAVYYCAADGPSNHDYHWGQGTQVTVSS
- polyreactivity (PSR sort gate): high polyreactivity

Sequence: QVQLVESGGGLVQAGGSLRLSCAASGFTIYRYAMGWYRQAPGKERELVAAITSRGGSTYYADSVKGRFTISRDNAKNTVYLQMNSLKPEDTAVYYCAAAGYYPAYDYWGQGTQVTVSS
- polyreactivity (PSR sort gate): high polyreactivity

Sequence: QVQLVESGGGLDQAGGSLRLSCAASGRTLSRYAMGWYRQAPGKERELVASMSWSGGRTYYADSVKGRFTISRDNAKNTVYLEMNSLKPEDTAVYYCAAVYVTAPFDYWGQGTQVTVSS
- polyreactivity (PSR sort gate): low polyreactivity

Sequence: QVQLVESGGGLVQAGGSLRLSCAASGIIFGVYAMGWYRQAPGKERELVAAIDGNGSSTYYADSVKGRFTISRDNAKNTVYLQMNSLKPEDTAVYYCAARPDYYLWHGYYTRRHYYWGQGTQVTVSA
- polyreactivity (PSR sort gate): low polyreactivity

Sequence: QVQLVESGGGLVQAGGSLRLSCAASGSTFGGNAMGWYRQAPGKERELVAAIDSGGSTYADSVKGRFTISRDNAKNTVYFQMNSLKPEDTAVYYCAAVWEFVHYWRFDYWGQGTQVTVSS
- polyreactivity (PSR sort gate): low polyreactivity

Sequence: QVQLVESGGGLVQAGGSLRLSCAASGSTFSSYAMGWYRQAPGKEREFDAAINTDGGSTYYADSVKGRFTISRDNAKNTVYLQMNSLKPEDTAVYYCAARYYWPWYSSYDYWGQGTQVTVSS
- polyreactivity (PSR sort gate): low polyreactivity

Sequence: QVQLVESGGRLVQAGGSLRLSCAASGSIFKYYVMGWYRQAPGKERELVAAISSGGGSTYYADSVKGRFTISRDNAKNSVYLQMNSLKPEDTAVYYCNKKYRSRWQGPFDYWGQATQVTVSS
- polyreactivity (PSR sort gate): high polyreactivity

Sequence: QVQLVESGGGLVQAGGSPRLSCAASGFTFYLYAMGWYRQAPGKERELVAAITRVGSTYYADSVKGRFTISRDNAKNTVYLQMNSLKPEDSAVYYCATDLSQVGFDYWGQGTQVSVSS
- polyreactivity (PSR sort gate): high polyreactivity

Sequence: QVQLVESGGRLVQAGGSLRLSCAASGRIFRDNAMGWYRQAPGKEMELVATIRSGTNTNYADSVKGRFTISRDYAKNTVYLQMNSLKPEDTAVYYCAADLWGSHYTEYRRYPYEYDYWGQGTQVTLSS
- polyreactivity (PSR sort gate): low polyreactivity

Sequence: QVQLVESGGGLVQAGGSLRLSCAASGRTFFPYAMGWYRQAPGKEREFVAAITKTDDSTYYADSVKGRFTISRDTSKNTVYLQMNSLKPEDTAVYYCNAGDTQMRFYYGGQGTQVTVSS
- polyreactivity (PSR sort gate): low polyreactivity

Sequence: QVQLVESGGGLVQAGGSLRLSCAASGSTFYKYAMGWYRQAPGKERELVASISRRAGSTYYADSVKGRFTISRDNAKNTVYLQMNSLKPEDTAVYYCAAVGRYDRVFDYDYWGQGTQVTVSS
- polyreactivity (PSR sort gate): high polyreactivity

Sequence: QVQLVESGGGLVQAGGSLRLSCAASGRIFGVNAMGWYRQAPGKERELVAAITSSGGSTYYADSVKGRFTISRDHAKNTVYLQMNSLKPEDTAVYYCAAKYWYGKPYGSYGYWGQGTQVTVSS
- polyreactivity (PSR sort gate): high polyreactivity

Sequence: QVQLVESGGGLVQAGGSLRLSCAASGRTFAWYAMGWYRQAPGKERELVAAISSGGSTYYADSVKGRFTISRDNAKKTVYLQMNSLKPDDTAVYYCAAEWHYIYAYDYWRQGTQVTVSS
- polyreactivity (PSR sort gate): low polyreactivity

Sequence: QVQLVESGGGLVQAGGSLRLSCAASGSIFVAYTMGWYRQAPGKERELVAAISRGGSTNYADSVKGRFTISRDNAKNTVDLQMNSLKPEDTAVYYCAAKVWDGQLLYYWGQGTQVTVSS
- polyreactivity (PSR sort gate): low polyreactivity

Sequence: QFQLVESGGGLVQAGGSLRLSCAASGNTFTKYAMGWYRQAPGKDRELLAGITRGGSTNYADSVKGRFTISRDNAKNTVYFQMNSLKPEDTAVYYCNARPVYGSRFYSAVRMEYWGQGTQVTVSS
- polyreactivity (PSR sort gate): low polyreactivity

Sequence: QVQLVESGGGLVQAGGSLRLSCAASGSTFGYYAMGWYRQAPGKERELVAAINSGDSTSYAESVKGRFTISRDNAKNTVYLQMNSLKPEDTAVYYCAVRPRRHQYGYWGQGTQVTVSS
- polyreactivity (PSR sort gate): low polyreactivity

Sequence: QVHLVESGGGLVQAGGSLRLSCAASGRIFGIYAMGWYRQAPGKERELVALITGGGSTNYADSVKGRFTISRDNAKNTVYLQMNSLKPEDTAVYYCAATVRRIVGNITRYDYWGQGTQVTVSS
- polyreactivity (PSR sort gate): low polyreactivity

Sequence: QVQLVESGGGLVQAGGSLRLSCAASGSIFPGYAMGWYRQAPGKERELVATITWSGGSTYYADSVKGRFTISRDNAKNTVYLQMNSLKPVDTAVYYCNADSNWYYQWNYYGLYDYWGQGTQVTVSS
- polyreactivity (PSR sort gate): low polyreactivity

Sequence: QVQLVESGGGLVQAGGSLLLSCAASGSIFPYYAMGMYRQAPGKERELVAAITDGGSTNYADSVKGRFTISRDNAKNTFYLQMNSLKQEDTAVYYCNKLPGYYDYDYWGQGTQVTVSS
- polyreactivity (PSR sort gate): low polyreactivity

Sequence: QVQLVESGGGLVQAGGSLRLSCAASGRIVYSNTMGWYRQAPGKERELVARIDTGGGSTYADSVKGRFTISRDNAKNTVYLQMNSLKPEDTAVYYCNKKGRWRSWGSTSLVSMDYWGQGTQVTVSS
- polyreactivity (PSR sort gate): low polyreactivity

Sequence: QVQLVESGGGLVQAGGSLRLSCAASGRTFASYAMGWYRQAPAKDRELVAAITSGGSTKYADSVKGRFTISRDNAKNSVYFQMNSLTPEDTAVYYCWRYVFHLSNYYYWGQGTQVTVSS
- polyreactivity (PSR sort gate): high polyreactivity

Sequence: QVQLVESGGVLVQAGASLRLSCAASGITFVTYAMGWYRQAPGKERELVADISSSGGSSYYADSVKGRFTISLDNAKNTVYLQMNSLKPEDTAVYYWAALATFYPEFDYWGQGTQVTVSS
- polyreactivity (PSR sort gate): low polyreactivity

Sequence: QVQLLESGGGLVQAGGSLRLSCAASGSTFEANTMGWYSQAPGKDRELVASISSSGGSTNYADSVKGRFTISRDNAKNTVYLQMNRLKQEDTAVYYCAVRCTYARWNWRTADSSRDYWGQGTQVTVSS
- polyreactivity (PSR sort gate): low polyreactivity

Sequence: QVQLVESGGGLVQAGGSLRLSCAASGRTFLGYAMGWYRQAPGKERELVAGITSGGRTYYADSVKGRFTNSRDNAKNTVYLQMNSLKPEDTAVYYCAADTHGYDPMDYWGQGTQVTVSS
- polyreactivity (PSR sort gate): high polyreactivity

Sequence: QVQLVESGGGLVQAGGSLRLSCAASGSIFYPYAMGWYRQAPGKERELVASISSGGSTYYADSVKGRFTISRDNGKNTVYLQMISLKTDDTAVYYCIAVFSTFTGEYYWGKGTQVTVSS
- polyreactivity (PSR sort gate): high polyreactivity

Sequence: QVQLVESGGGLVQAGGSLRLSCAASGSIFYVYAMGWYRQAPGKERELVASINKSGGSTYYADSVKGRFTISRDNAKNTVYLQMNSLKPEDTAVYYCAARTGWPRVGFQYPAHVGFDYWGQGTQVTVSS
- polyreactivity (PSR sort gate): low polyreactivity

Sequence: QVQLVESGGGLVQAGGSLRLICAASGSNFYVYAMGWYRQAPGKERELVAAISDSGSRTYYADSVKGRFTISRDNAKNTVYLKKNSLKPEDTAVYYCAALTRRTGYTYKEYYWGQGTQVTVSS
- polyreactivity (PSR sort gate): high polyreactivity

Sequence: QVQLVESWGGLVQAGGSLRLSCAASGRIFVKYAMGWYRQAPGKERELVAAISWIGGSTYYADSVKGRFTISRDNAKNTVYLQMNSLKPEDTAVYYCAAQGKDYEASPGYDGGRNYWGQGTQVTVSS
- polyreactivity (PSR sort gate): low polyreactivity

Sequence: QVQLVESGGGLVQAGGSLRLSCAASGSTFRFYAMGWYRQAPGKERELVATISSSGGTTYYADSVKGRFTISRDNAKNTVYLQMNSLKPEDTAVYYCAARYYDTRWRYYYWGQGTQVTVSS
- polyreactivity (PSR sort gate): high polyreactivity

Sequence: QVHLVESGGGLVQAGGSLRLSCAASGSIFPYNVMGWYTQAPGTERELVAAISTRGGRTYYADSVKGRFTISRDNANNTVYLELNSLKPEDTAVYDCATAGGPYSDYGYYWGQGTQVTVSS
- polyreactivity (PSR sort gate): high polyreactivity
